Test results: PMC11009875

Columns and labels:
[1] = biological target: microtubules (bovine tubulin, Taxol-stabilised) (bovine) (UniProt Q6B856); test: optical trapping, unloaded single molecule bead assay with video tracking
[2] = biological target: microtubules (bovine tubulin, Taxol-stabilised) (bovine) (UniProt Q6B856); test: optical trapping, rupture assay
[3] = biological target: subtilisin-digested microtubules (E-hook removed) (bovine) (UniProt Q6B856); test: optical trapping, rupture assay

UniProt Q6B856, sequence (Q6B856 whole entry, looked up): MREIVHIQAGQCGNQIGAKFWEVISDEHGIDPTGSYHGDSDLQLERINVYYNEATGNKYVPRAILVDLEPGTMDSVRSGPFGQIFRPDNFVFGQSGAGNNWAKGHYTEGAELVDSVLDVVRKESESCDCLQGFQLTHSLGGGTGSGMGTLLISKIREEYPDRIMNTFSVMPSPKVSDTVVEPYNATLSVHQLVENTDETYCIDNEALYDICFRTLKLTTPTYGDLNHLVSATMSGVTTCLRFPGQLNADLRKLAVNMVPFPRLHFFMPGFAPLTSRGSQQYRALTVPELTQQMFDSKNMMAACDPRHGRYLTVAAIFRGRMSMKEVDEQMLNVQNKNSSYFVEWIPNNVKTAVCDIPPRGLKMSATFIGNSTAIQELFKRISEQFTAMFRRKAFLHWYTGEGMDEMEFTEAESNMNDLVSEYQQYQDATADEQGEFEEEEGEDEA

| Binder | percent of beads binding [1] [%] | bond lifetime (double Gaussian, first population) [2] [s] | bond lifetime (double Gaussian, second population) [2] [s] | force at rupture (first population) [2] [pN] | force at rupture (second population) [2] [pN] | lifetime time constant k^-1 (single exponential fit) [2] [s] | bond lifetime (single Gaussian) [3] [s] |
| --- | --- | --- | --- | --- | --- | --- | --- |
| FL-HSET (full-length kinesin-14 HSET/KIFC1) (natural protein) MDPQRSPLLEVKGNIELKRPLIKAPSQLPLSGSRLKRRPDQMEDGLEPEKKRTRGLGATTKITTSHPRVPSLTTVPQTQGQTTAQKVSKKTGPRCSTAIATGLKNQKPVPAVPVQKSGTSGVPPMAGGKKPSKRPAWDLKGQLCDLNAELKRCRERTQTLDQENQQLQDQLRDAQQQVKALGTERTTLEGHLAKVQAQAEQGQQELKNLRACVLELEERLSTQEGLVQELQKKQVELQEERRGLMSQLEEKERRLQTSEAALSSSQAEVASLRQETVAQAALLTEREERLHGLEMERRRLHNQLQELKGNIRVFCRVRPVLPGEPTPPPGLLLFPSGPGGPSDPPTRLSLSRSDERRGTLSGAPAPPTRHDFSFDRVFPPGSGQDEVFEEIAMLVQSALDGYPVCIFAYGQTGSGKTFTMEGGPGGDPQLEGLIPRALRHLFSVAQELSGQGWTYSFVASYVEIYNETVRDLLATGTRKGQGGECEIRRAGPGSEELTVTNARYVPVSCEKEVDALLHLARQNRAVARTAQNERSSRSHSVFQLQISGEHSSRGLQCGAPLSLVDLAGSERLDPGLALGPGERERLRETQAINSSLSTLGLVIMALSNKESHVPYRNSKLTYLLQNSLGGSAKMLMFVNISPLEENVSESLNSLRFASKVNQCVIGTAQANRK | 11 |  |  |  |  |  |  |
| HSET-ΔM (no motor; EGFP-HSET aa 1-304, tail-stalk) (domain or fragment) MDPQRSPLLEVKGNIELKRPLIKAPSQLPLSGSRLKRRPDQMEDGLEPEKKRTRGLGATTKITTSHPRVPSLTTVPQTQGQTTAQKVSKKTGPRCSTAIATGLKNQKPVPAVPVQKSGTSGVPPMAGGKKPSKRPAWDLKGQLCDLNAELKRCRERTQTLDQENQQLQDQLRDAQQQVKALGTERTTLEGHLAKVQAQAEQGQQELKNLRACVLELEERLSTQEGLVQELQKKQVELQEERRGLMSQLEEKERRLQTSEAALSSSQAEVASLRQETVAQAALLTEREERLHGLEMERRRLHNQL |  | 0.29 | 1 | 2.1 | 5.6 | 0.23 | 0.22 |
